From doi:10.1101/2021.04.18.440036 (bioRxiv, 2021) come the findings set out here.

The target in this test is protective antigen (PA) prepore (Bacillus anthracis V770-NP1-R (ATCC …, UniProt P13423)). As to the kind of experiment: cryo-EM structure.
Sequence of protective antigen (PA) prepore (Bacillus anthracis V770-NP1-R (P13423 whole entry, looked up): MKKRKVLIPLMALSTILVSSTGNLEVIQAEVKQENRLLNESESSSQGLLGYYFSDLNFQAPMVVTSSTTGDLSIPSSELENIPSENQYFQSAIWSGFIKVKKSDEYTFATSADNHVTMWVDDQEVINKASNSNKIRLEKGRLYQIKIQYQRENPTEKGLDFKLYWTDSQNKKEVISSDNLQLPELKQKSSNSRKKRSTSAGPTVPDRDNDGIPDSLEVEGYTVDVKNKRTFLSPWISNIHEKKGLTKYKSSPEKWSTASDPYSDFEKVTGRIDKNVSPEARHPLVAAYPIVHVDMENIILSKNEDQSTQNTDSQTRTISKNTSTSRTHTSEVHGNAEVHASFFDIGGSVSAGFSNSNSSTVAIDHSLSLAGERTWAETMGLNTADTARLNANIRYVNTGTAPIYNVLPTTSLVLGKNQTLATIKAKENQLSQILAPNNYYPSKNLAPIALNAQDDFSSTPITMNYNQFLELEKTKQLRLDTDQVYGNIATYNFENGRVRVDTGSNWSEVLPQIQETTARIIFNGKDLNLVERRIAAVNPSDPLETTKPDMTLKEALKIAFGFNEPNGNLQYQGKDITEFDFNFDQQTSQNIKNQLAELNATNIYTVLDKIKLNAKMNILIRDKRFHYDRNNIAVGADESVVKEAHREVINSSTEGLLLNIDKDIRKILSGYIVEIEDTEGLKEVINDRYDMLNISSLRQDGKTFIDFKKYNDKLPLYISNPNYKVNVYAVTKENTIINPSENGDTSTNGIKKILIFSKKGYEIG

B1: cAb29 Fab (Fab, V domains shown)
VH: QVQLQQSGAELVKPGASVKMSCKASGYIFTNYNMHWVQQTPGQGLEWIGAIYPRTGDTSYNQKFKGKATLTADKSSSTAYMQLSSLTSEDSAVYYCARDGFAYWGQG
VL: DIQMTQTTSSLSASLGDRVTISCRASQDISNYLNWYQQKPDGTVKLLIYYTSRLHSEVPSRFSGSGSGTDYSLTISNLEEEDIATYFCQQGKTLPWTFGGG
Take B1: the binding result is given as “binds”.
